Laboratory results from US20260204353A1 (published 2026).
Where a chain is given by its changes, count along the chain named.

B1: Variant 7 (scFv, V domains shown)
VH: EVKLLESGGGLVQPGGSLRLSCAASGFTFSSYTMSWVRQAPGKGLEWVSYISHGGGDTYYPDSVKGRFTISRDNSKNTLYLQMNSLRAEDTAVYYCARHSGYERGYYYVMDYWGKGTTVTVSS
VL: DIVMTQSPDSLAVSLGERATINCKSSESVDYYGFSFLNWFQQKPGQPPKLLIYAASNRESGVPDRFSGSGSGTDFTLTISSLQAEDVAVYYCQQSKEVPWTFGQGTKLEIK
B2: Variant 3 (scFv, V domains shown)
VH: B1 VH with K3Q, L5V, P61A, K115Q, T118L
VL: DIQLTQSPDSLSVSLGERATINCKASESVDYYGFSFLNWFQQKPGQPPKLLIYAASNRQSGVPDRFSGSGSGTDFTLTISSLQAEDVAVYFCQQSKEVPWTFGQGTKLEIKR
B3: Variant 6 (scFv, V domains shown)
VH: B1 VH with K3Q, L5V, K115Q, T118L
VL: B2 VL
B4: Variant 4 (scFv, V domains shown)
VH: B1 VH with K3Q, L5V, K115Q, T118L
VL: B2 VL with Q3V, L4M, S12A, A25S, Q59E, F91Y
B5: Variant 5 (scFv, V domains shown)
VH: B1 VH with K3Q, L5V, K115Q, T118L
VL: B2 VL with Q3V, L4M, S12A, Q59E, F91Y
B6: Variant 1 (scFv, V domains shown)
VH: B1 VH with K3Q, L5V, P61A, K115Q, T118L
VL: B2 VL with Q3V, L4M, S12A, A25S, Q59E, F91Y
B7: Variant 8 (scFv, V domains shown)
VH: B1 VH
VL: B1 VL with S25A
B8: Variant 2 (scFv, V domains shown)
VH: B1 VH with K3Q, L5V, P61A, K115Q, T118L
VL: B2 VL with Q3V, L4M, S12A, Q59E, F91Y

Columns and labels:
[1] = target: T1, - (UniProt Q15116 25-167); test: SPR (Biacore T200)
[2] = target: T1, -; test: SPR (Biacore T200); range printed

T1 sequence (Q15116 25-167): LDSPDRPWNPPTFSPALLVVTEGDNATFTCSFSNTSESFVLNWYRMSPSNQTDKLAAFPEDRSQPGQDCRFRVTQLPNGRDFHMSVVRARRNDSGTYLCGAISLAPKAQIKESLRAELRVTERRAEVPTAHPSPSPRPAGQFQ

Binder	Kd [1] [nM]	Kd [2] [nM]
B1	0.67	
B2	5.6	
B3	5.8	
B4	3.6	
B5	2.3	
B6	5.8	
B7	2.6	
B8		2
